Source: patent publication US20210147508A1 (ACCELERON PHARMA, published 2021)
Blank lines part the entries; values can stand above or below the binder they belong to.

Assays:
Assay in all cases: cell-based or functional assay
TGFβ3 = biological target: T1, TGFβ3 (human, UniProt P10600 301-412)
T1 sequence (looked up): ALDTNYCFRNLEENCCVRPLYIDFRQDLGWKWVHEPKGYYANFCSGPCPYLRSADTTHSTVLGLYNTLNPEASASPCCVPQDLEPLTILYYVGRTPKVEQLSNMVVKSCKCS

TGFβ1 = TGFβ1 (human, UniProt P01137 279-390)
TGFβ2 = biological target: T2, TGFβ2 (human, UniProt P61812 303-414)
T2 sequence (looked up): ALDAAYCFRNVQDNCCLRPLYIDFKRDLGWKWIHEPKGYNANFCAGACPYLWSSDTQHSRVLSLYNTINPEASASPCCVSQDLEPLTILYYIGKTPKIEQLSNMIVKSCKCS

Chain of TGFβ1 (P01137 279-390 limits assumed): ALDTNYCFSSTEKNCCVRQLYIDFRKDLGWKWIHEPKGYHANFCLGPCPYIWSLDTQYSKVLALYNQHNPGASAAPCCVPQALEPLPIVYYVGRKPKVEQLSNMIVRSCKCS

IC50 (pM), inhibition of TGFβ3 (270 pg/mL), CAGA12-luciferase reporter in A549 cells (TGFβ3): < 90 pM
IC50 (pM), inhibition of TGFβ1 (640 pg/mL), CAGA12-luciferase reporter in A549 cells (TGFβ1): < 350 pM
IC50 (pM), inhibition of TGFβ2 (480 pg/mL), CAGA12-luciferase reporter in A549 cells (TGFβ2): ~200 pM
B1: TGFβRIISHORT-Fc:ALK5-Fc heterodimer (Fc fusion)
chain 1: TIPPHVQKSVNNDMIVTDNNGAVKFPQLCKFCDVRFSTCDNQKSCMSNCSITSICEKPQEVCVAVWRKNDENITLETVCHDPKLPYHDFILEDAASPKCIMKEKKKPGETFFMCSCSSDECNDNIIFSEEYNTSNPDTGGGTHTCPPCPAPELLGGPSVFLFPPKPKDTLMISRTPEVTCVVVDVSHEDPEVKFNWYVDGVEVHNAKTKPREEQYNSTYRVVSVLTVLHQDWLNGKEYKCKVSNKALPAPIEKTISKAKGQPREPQVYTLPPSRKEMTKNQVSLTCLVKGFYPSDIAVEWESNGQPENNYKTTPPVLKSDGSFFLYSKLTVDKSRWQQGNVFSCSVMHEALHNHYTQKSLSLSPGK
chain 2: ALLPGATALQCFCHLCTKDNFTCVTDGLCFVSVTETTDKVIHNSMCIAEIDLIPRDRPFVCAPSSKTGSVTTTYCCNQDHCNKIELPTTVKSSPGLGPVETGGGTHTCPPCPAPELLGGPSVFLFPPKPKDTLMISRTPEVTCVVVDVSHEDPEVKFNWYVDGVEVHNAKTKPREEQYNSTYRVVSVLTVLHQDWLNGKEYKCKVSNKALPAPIEKTISKAKGQPREPQVYTLPPSREEMTKNQVSLTCLVKGFYPSDIAVEWESNGQPENNYDTTPPVLDSDGSFFLYSDLTVDKSRWQQGNVFSCSVMHEALHNHYTQKSLSLSPG

IC50 (pM), inhibition of TGFβ3 (270 pg/mL), CAGA12-luciferase reporter in A549 cells (TGFβ3): 35 pM
IC50 (pM), inhibition of TGFβ1 (640 pg/mL), CAGA12-luciferase reporter in A549 cells (TGFβ1): 204 pM
IC50 (pM), inhibition of TGFβ2 (480 pg/mL), CAGA12-luciferase reporter in A549 cells (TGFβ2): 154 pM
B2: TGFβRIILONG-Fc:ALK5-Fc heterodimer (Fc fusion)
chain 1: TIPPHVQKSDVEMEAQKDEIICPSCNRTAHPLRHINNDMIVTDNNGAVKFPQLCKFCDVRFSTCDNQKSCMSNCSITSICEKPQEVCVAVWRKNDENITLETVCHDPKLPYHDFILEDAASPKCIMKEKKKPGETFFMCSCSSDECNDNIIFSEEYNTSNPDTGGGTHTCPPCPAPELLGGPSVFLFPPKPKDTLMISRTPEVTCVVVDVSHEDPEVKFNWYVDGVEVHNAKTKPREEQYNSTYRVVSVLTVLHQDWLNGKEYKCKVSNKALPAPIEKTISKAKGQPREPQVYTLPPSRKEMTKNQVSLTCLVKGFYPSDIAVEWESNGQPENNYKTTPPVLKSDGSFFLYSKLTVDKSRWQQGNVFSCSVMHEALHNHYTQKSLSLSPGK
chain 2: B1 chain 2
